IC50 of D6R for inhibition of the in vitro cleavage of the fluorogenic substrate Boc-VPR-AMC by rKLK8 and IC50 of D6R for inhibition of the in vitro cleavage of the fluorogenic substrate Boc-RVRR-AMC by rFurin data for one molecule are collected here from publication PMC11893775.

Assay [1] concerns the target T1, recombinant kallikrein-8 (rKLK8) (UniProt O60259).
T1 sequence: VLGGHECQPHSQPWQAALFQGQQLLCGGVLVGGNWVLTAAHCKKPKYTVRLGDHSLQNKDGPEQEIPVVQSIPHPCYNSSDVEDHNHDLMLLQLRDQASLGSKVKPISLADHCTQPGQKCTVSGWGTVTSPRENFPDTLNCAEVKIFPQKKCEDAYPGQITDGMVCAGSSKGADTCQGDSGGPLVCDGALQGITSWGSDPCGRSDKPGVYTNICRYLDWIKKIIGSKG

The target in assay [2] is recombinant human furin lacking the trans-membrane domain and cytosolic tail (human) (UniProt P09958).
Sequence of UniProt P09958 (P09958 108-715): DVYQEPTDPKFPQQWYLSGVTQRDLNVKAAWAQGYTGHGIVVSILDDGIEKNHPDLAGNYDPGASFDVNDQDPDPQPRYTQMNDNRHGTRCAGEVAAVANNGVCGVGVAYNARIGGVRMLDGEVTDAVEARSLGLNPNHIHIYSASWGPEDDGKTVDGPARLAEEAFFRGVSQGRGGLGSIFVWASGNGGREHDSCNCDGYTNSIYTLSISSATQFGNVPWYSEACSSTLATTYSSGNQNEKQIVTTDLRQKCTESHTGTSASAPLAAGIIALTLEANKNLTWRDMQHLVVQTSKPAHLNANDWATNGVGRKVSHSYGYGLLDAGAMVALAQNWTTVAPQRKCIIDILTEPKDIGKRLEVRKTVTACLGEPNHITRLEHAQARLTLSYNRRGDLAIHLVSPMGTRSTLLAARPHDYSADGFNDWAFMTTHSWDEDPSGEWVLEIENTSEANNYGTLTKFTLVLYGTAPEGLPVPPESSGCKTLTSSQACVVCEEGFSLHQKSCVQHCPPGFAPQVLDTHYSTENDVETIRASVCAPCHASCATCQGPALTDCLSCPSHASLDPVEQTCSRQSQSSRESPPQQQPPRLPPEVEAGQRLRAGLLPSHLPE

Non-standard residues stand in square brackets, D forms with d. No end group written: not given here.

Turning to [dR][dR][dR][dR][dR][dR] [hexa-D-arginine], in assay [1], the IC50 of D6R for inhibition of the in vitro cleavage of the fluorogenic substrate Boc-VPR-AMC by rKLK8 is less than 25000 nM. Further, in assay [2], the IC50 of D6R for inhibition of the in vitro cleavage of the fluorogenic substrate Boc-RVRR-AMC by rFurin is 780 nM.
